From the supplement of paper PMC5998384 come the findings set out here.

For series [1], the system named is HeLa Kyoto. Kind of series: solubility in G1/S (NP-40 vs SDS abundance) (log2 ratio); higher = more soluble. The note with it: cell cycle stage: G1/S.
Series [2] concerns HeLa Kyoto. Kind of series: melting temperature (median over replicates), in situ; higher = more thermally stable.
The test system of series [3] is HeLa Kyoto. Nature of the series: solubility change mitosis vs G1/S (difference of NP-40 vs SDS log2 ratios) (log2 ratio difference); higher = more soluble in mitosis.
Series [4] deals with HeLa Kyoto. Nature of the series: thermal stability score vs G1/S (z-score of summed log2 fold changes over temperatures); higher = more thermally stable than in G1/S.
Setting [5] is: cell cycle stage: early G1 (4.5 h after nocodazole release).
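Wherever melting temperature (median over replicates), in situ is given: HeLa Kyoto cells synchronized by double thymidine or nocodazole block, proteins quantified by TMT10plex mass spectrometry, three independent biological replicates.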
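Wherever solubility change mitosis vs G1/S (difference of NP-40 vs SDS log2 ratios) is given: synchronized HeLa Kyoto cells (double thymidine block for G1/S, nocodazole release for mitosis), protein amounts in NP-40 versus SDS lysates quantified by mass spectrometry, three biological replicates.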
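Wherever solubility in G1/S (NP-40 vs SDS abundance) is given: HeLa Kyoto cells arrested at G1/S by double thymidine block, proteins quantified by TMT10plex mass spectrometry in mild NP-40 versus SDS extracts, three biological replicates.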
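Wherever thermal stability score vs G1/S (z-score of summed log2 fold changes over temperatures) is given: synchronized HeLa Kyoto cells, proteins quantified by TMT10plex mass spectrometry, three biological replicates, mitosis taken 0.5 h after nocodazole release, G1/S directly after double thymidine block.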

Sequence of NLE1 (chain, as listed by the source): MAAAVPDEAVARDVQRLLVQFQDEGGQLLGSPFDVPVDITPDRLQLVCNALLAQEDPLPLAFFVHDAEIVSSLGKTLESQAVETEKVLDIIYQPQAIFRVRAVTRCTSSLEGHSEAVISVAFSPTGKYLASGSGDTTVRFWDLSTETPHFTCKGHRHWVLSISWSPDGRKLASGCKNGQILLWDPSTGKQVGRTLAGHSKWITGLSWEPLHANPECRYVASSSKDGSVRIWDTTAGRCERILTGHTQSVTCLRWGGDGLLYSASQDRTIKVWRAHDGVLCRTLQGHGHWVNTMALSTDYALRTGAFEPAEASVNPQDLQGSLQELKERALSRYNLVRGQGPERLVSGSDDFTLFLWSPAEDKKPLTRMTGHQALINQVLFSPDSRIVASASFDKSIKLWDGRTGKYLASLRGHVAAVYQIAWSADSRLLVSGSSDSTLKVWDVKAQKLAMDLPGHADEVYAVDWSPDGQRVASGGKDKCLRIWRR

In the case of “MTSLYGRHAEKTTDMPKPSAPKVHVQRSVSRDTIAIHFSASGEEEEEEEEEFREYFEEGLDDQSIVTGLEAKEDLYLEPQVGHDPAGPAASPVLADGLSVSQAPAILPVSKNTVKLLESPVPAAQVLSTVPLAVSPGSSSSGPLASSPSVSSLSEQKTSSSSPLSSPSKSPILSSSASTSTLSSAKPFMSLVKSLSTEVEPKESPHPARHRHLMKTLVKSLSTDTSRQESDTVSYKPPDSKLNLHLFKQFTQPRNTGGDSKTAPSSPLTSPSDTRSFFKVPEMEAKIEDTKRRLSEVIYEPFQLLSKIIGEESGSHRPKALSSSASELSNLSSLNGHLESNNNYSIKEEECDSEGDGYGSDSNIPRSDHPKSTGEPTREIELKSSQGSSLKDLGLKTSSLVLEKCSLSALVSKEDEEFCELYTEDFDLETEGESKVDKLSDIPLKPEVLAEDGVVLDSEDEVDSAVQHPELPVKTLGFFIMCVYVYLILPLPHYVSGLFLGIGLGFMTAVCVIWFFTPPSAHKYHKLHKNLRHWNTRSLDIKEPEILKGWMNEIYNYDPETYHATLTHSVFVRLEGGTLRLSKPNKNISRRASYNEPKPEVTYISQKIYDLSDSKIYLVPKTLARKRIWNKKYPICIELGQQDDFMSKAQTDKETSEEKPPAEGSEDPKKPPRPQEGTRSSQRDQILYLFGRTGREKEEWFRRFILASKLKSEIKKSSGVSGGKPGLLPAHSRHNSPSGHLTHSRSSSKGSVEEIMSQPKQKELAGSVRQKMLLDYSVYMGRCVPQESRSPQRSPLQSAESSPTAGKKLPEVPPSEEEEQEAWVNALLGRIFWDFLGEKYWSDLVSKKIQMKLSKIKLPYFMNELTLTELDMGVAVPKILQAFKPYVDHQGLWIDLEMSYNGSFLMTLETKMNLTKLGKEPLVEALKVGEIGKEGCRPRAFCLADSDEESSSAGSSEEDDAPEPSGGDKQLLPGAEGYVGGHRTSKIMRFVDKITKSKYFQKATETEFIKKKIEEVSNTPLLLTVEVQECRGTLAVNIPPPPTDRVWYGFRKPPHVELKARPKLGEREVTLVHVTDWIEKKLEQEFQKVFVMPNMDDVYITIMHSAMDPRSTSCLLKDPPVEAADQP [TEX2]”, in the series on HeLa Kyoto [1], the “solubility in G1/S (log2)” value is -0.062. Also, the melting temperature in the series with HeLa Kyoto [2] (cell cycle stage: G1/S) came out at 50.1 °C; in the series on HeLa Kyoto [2] (cell cycle stage: mitosis), 50.4 °C. The “solubility change mitosis (log2)” value in the series on HeLa Kyoto [3] was -0.118. Further, the thermal stability score in the series with HeLa Kyoto [4] (setting [5]) was -0.212; with HeLa Kyoto [4] (cell cycle stage: mitosis), -0.23.

In the case of “MSFSRALLWARLPAGRQAGHRAAICSALRPHFGPFPGVLGQVSVLATASSSASGGSKIPNTSLFVPLTVKPQGPSADGDVGAELTRPLDKNEVKKVLDKFYKRKEIQKLGADYGLDARLFHQAFISFRNYIMQSHSLDVDIHIVLNDICFGAAHADDLFPFFLRHAKQIFPVLDCKDDLRKISDLRIPPNWYPDARAMQRKIIFHSGPTNSGKTYHAIQKYFSAKSGVYCGPLKLLAHEIFEKSNAAGVPCDLVTGEERVTVQPNGKQASHVSCTVEMCSVTTPYEVAVIDEIQMIRDPARGWAWTRALLGLCAEEVHLCGEPAAIDLVMELMYTTGEEVEVRDYKRLTPISVLDHALESLDNLRPGDCIVCFSKNDIYSVSRQIEIRGLESAVIYGSLPPGTKLAQAKKFNDPNDPCKILVATDAIGMGLNLSIRRIIFYSLIKPSINEKGERELEPITTSQALQIAGRAGRFSSRFKEGEVTTMNHEDLSLLKEILKRPVDPIRAAGLHPTAEQIEMFAYHLPDATLSNLIDIFVDFSQVDGQYFVCNMDDFKFSAELIQHIPLSLRVRYVFCTAPINKKQPFVCSSLLQFARQYSRNEPLTFAWLRRYIKWPLLPPKNIKDLMDLEAVHDVLDLYLWLSYRFMDMFPDASLIRDLQKELDGIIQDGVHNITKLIKMSETHKLLNLEGFPSGSQSRLSGTLKSQARRTRGTKALGSKATEPPSPDAGELSLASRLVQQGLLTPDMLKQLEKEWMTQQTEHNKEKTESGTHPKGTRRKKKEPDSD [SUPV3L1]”, in the series with HeLa Kyoto [1], the “solubility in G1/S (log2)” value was -0.0284. In addition, the melting temperature in the series on HeLa Kyoto [2] (cell cycle stage: G1/S) stood at 51.4 °C; in the series on HeLa Kyoto [2] (cell cycle stage: mitosis), 51.5 °C. Moreover, in the series with HeLa Kyoto [3], the “solubility change mitosis (log2)” value was -0.0848. The thermal stability score amounted to 0.374 with HeLa Kyoto [4] (setting [5]) and 0.138 with HeLa Kyoto [4] (cell cycle stage: mitosis).

For the substance “MDDDDFGGFEAAETFDGGSGETQTTSPAIPWAAFPAVSGVHLSPSSPEIVLDRDHSSSIGCLSSDAIISSPENTHAANSIVSQTIPKAQIQQSTHTHLDISLFPLGLTDEKSNGTIALVDDSEDPGANVSNIQLQQKISSLEIKLKVSEEEKQRIKQDVESLMEKHNVLEKGFLKEKEQEAISFQDRYKELQEKHKQELEDMRKAGHEALSIIVDEYKALLQSSVKQQVEAIEKQYISAIEKQAHKCEELLNAQHQRLLEMLDTEKELLKEKIKEALIQQSQEQKEILEKCLEEERQRNKEALVSAAKLEKEAVKDAVLKVVEEERKNLEKAHAEERELWKTEHAKDQEKVSQEIQKAIQEQRKISQETVKAAIIEEQKRSEKAVEEAVKRTRDELIEYIKEQKRLDQVIRQRSLSSLELFLSCAQKQLSALIATEPVDIE [CCDC91]”, the “solubility in G1/S (log2)” value with HeLa Kyoto [1] turned out to be 0.348. The melting temperature in the series with HeLa Kyoto [2] (cell cycle stage: G1/S) is 53 °C; with HeLa Kyoto [2] (cell cycle stage: mitosis) it was 52.1 °C. Also, the “solubility change mitosis (log2)” value in the series with HeLa Kyoto [3] was -0.0653. Besides, the thermal stability score in the series on HeLa Kyoto [4] (setting [5]) is -0.397; with HeLa Kyoto [4] (cell cycle stage: mitosis), -0.35.

Take “MAASRWARKAVVLLCASDLLLLLLLLPPPGSCAAEGSPGTPDESTPPPRKKKKDIRDYNDADMARLLEQWEKDDDIEEGDLPEHKRPSAPVDFSKIDPSKPESILKMTKKGKTLMMFVTVSGSPTEKETEEITSLWQGSLFNANYDVQRFIVGSDRAIFMLRDGSYAWEIKDFLVGQDRCADVTLEGQVYPGKGGGSKEKNKTKQDKGKKKKEGDLKSRSSKEENRAGNKREDL [MESDC2]”: the “solubility in G1/S (log2)” value in the series on HeLa Kyoto [1] was determined as 0.269. Besides, the results for the melting temperature in the series with HeLa Kyoto [2] (cell cycle stage: G1/S) and in the series on HeLa Kyoto [2] (cell cycle stage: mitosis) were 55.5 °C and 56.3 °C, respectively. Besides, in the series with HeLa Kyoto [3], the “solubility change mitosis (log2)” value is -0.0464. The figures for the thermal stability score in the series with HeLa Kyoto [4] (setting [5]) and in the series on HeLa Kyoto [4] (cell cycle stage: mitosis) were 3.56 and 2.22, respectively.

As to “MSFLLPKLTSKKEVDQAIKSTAEKVLVLRFGRDEDPVCLQLDDILSKTSSDLSKMAAIYLVDVDQTAVYTQYFDISYIPSTVFFFNGQHMKVDYGSPDHTKFVGSFKTKQDFIDLIEVIYRGAMRGKLIVQSPIDPKNIPKYDLLYQDI [TXNL4B]”, the “solubility in G1/S (log2)” value in the series with HeLa Kyoto [1] came to 0.0975. The melting temperature worked out at 51 °C with HeLa Kyoto [2] (cell cycle stage: G1/S) and 51.8 °C in the series with HeLa Kyoto [2] (cell cycle stage: mitosis). Further, the “solubility change mitosis (log2)” value with HeLa Kyoto [3] turned out to be 0.00266. In addition, the thermal stability score in the series on HeLa Kyoto [4] (setting [5]) was found to be 0.0365; in the series on HeLa Kyoto [4] (cell cycle stage: mitosis) it was 1.15.

On to “MDLLQFLAFLFVLLLSGMGATGTLRTSLDPSLEIYKKMFEVKRREQLLALKNLAQLNDIHQQYKILDVMLKGLFKVLEDSRTVLTAADVLPDGPFPQDEKLKDAFSHVVENTAFFGDVVLRFPRIVHYYFDHNSNWNLLIRWGISFCNQTGVFNQGPHSPILSLMAQELGISEKDSNFQNPFKIDRTEFIPSTDPFQKALREEEKRRKKEEKRKEIRKGPRISRSQSEL [CCDC134]”, for which the “solubility in G1/S (log2)” value with HeLa Kyoto [1] is 0.505. Also, the values for the melting temperature in the series on HeLa Kyoto [2] (cell cycle stage: G1/S) and in the series with HeLa Kyoto [2] (cell cycle stage: mitosis) were 51.7 °C and 53.3 °C, respectively. For the same substance, the “solubility change mitosis (log2)” value with HeLa Kyoto [3] turned out to be 0.012. For the same substance, the thermal stability score in the series with HeLa Kyoto [4] (setting [5]) was 1.83; in the series with HeLa Kyoto [4] (cell cycle stage: mitosis), 1.3.

Regarding NLE1, in the series with HeLa Kyoto [1], the “solubility in G1/S (log2)” value is -0.35. Also, the melting temperature stood at 53 °C in the series on HeLa Kyoto [2] (cell cycle stage: G1/S) and 54.2 °C in the series on HeLa Kyoto [2] (cell cycle stage: mitosis). Further, the “solubility change mitosis (log2)” value in the series on HeLa Kyoto [3] came to 0.0775. Besides, the thermal stability score in the series on HeLa Kyoto [4] (setting [5]) was -1.88; with HeLa Kyoto [4] (cell cycle stage: mitosis), -4.55.

Regarding SETD2, the “solubility in G1/S (log2)” value with HeLa Kyoto [1] is -0.43. The melting temperature was determined as 48.1 °C with HeLa Kyoto [2] (cell cycle stage: G1/S) and 50.2 °C in the series with HeLa Kyoto [2] (cell cycle stage: mitosis). Besides, the “solubility change mitosis (log2)” value with HeLa Kyoto [3] was 0.19. For the same substance, the thermal stability score in the series with HeLa Kyoto [4] (setting [5]) was found to be 0.914; in the series with HeLa Kyoto [4] (cell cycle stage: mitosis), 2.05.
